Test results: patent publication US20210388087A1 (Chugai, published 2021)
Positions count from the first letter of the chain named. Names and notes keep the numbering of the source. Blank lines part the entries; values can stand above or below the binder they belong to.

Molecular target: T1, Human CD3eg linker (human)
T1 construct: single-chain construct; also called recombinant human CD3
T1 chain: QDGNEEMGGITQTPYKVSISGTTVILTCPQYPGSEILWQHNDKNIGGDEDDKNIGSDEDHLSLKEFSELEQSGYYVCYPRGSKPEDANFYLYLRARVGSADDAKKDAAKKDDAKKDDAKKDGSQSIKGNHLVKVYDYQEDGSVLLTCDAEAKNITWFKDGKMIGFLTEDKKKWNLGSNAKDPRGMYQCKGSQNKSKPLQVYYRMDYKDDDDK
Test: SPR, vs unmutated H183/L072

B2: dBBDu183H V100cT/dBBDu072L (antibody, name in Kabat numbering, V domains shown)
VH: QVQLVESGGGLVQPGRSLRLSCAASGFTFSNAWMHWVRQAPGKGLEWVAQIKDKGNAYAAYYAPSVKGRFTISRDDSKNSIYLQMNSLKTEDTAVYYCHYVHYASASTTLPAFGVDAWGQGTTVTVSS
VL: DIVMTQSPLSLPVTPGEPASISCQASQELVHMNRNTYLHWYQQKPGQAPRLLIYKVSNRFPGVPDRFSGSGSGTDFTLKISRVEAEDVGVYYCAQGTSVPFTFGQGTKLEIK
fold change of affinity: 1 fold

B4: dBBDu183H Y94R/dBBDu072L (antibody, name in Kabat numbering, V domains shown)
VH: B2 VH with Y100R, T109V
VL: B2 VL
fold change of affinity: 0.3 fold

B5: dBBDu183H Y94K/dBBDu072L (antibody, name in Kabat numbering, V domains shown)
VH: B2 VH with Y100K, T109V
VL: B2 VL
fold change of affinity: 0 fold

B7: dBBDu183H V100cR/dBBDu072L (antibody, name in Kabat numbering, V domains shown)
VH: B2 VH with T109R
VL: B2 VL
fold change of affinity: 1.5 fold

B8: dBBDu183H V100iT/dBBDu072L (antibody, name in Kabat numbering, V domains shown)
VH: B2 VH with T109V, V115T
VL: B2 VL
fold change of affinity: 1 fold

B9: dBBDu183H V100iR/dBBDu072L (antibody, name in Kabat numbering, V domains shown)
VH: B2 VH with T109V, V115R
VL: B2 VL
fold change of affinity: 4 fold

B11: dBBDu183H V100iW/dBBDu072L (antibody, name in Kabat numbering, V domains shown)
VH: B2 VH with T109V, V115W
VL: B2 VL
fold change of affinity: 4.9 fold

B15: dBBDu183H Y94F/dBBDu072L (antibody, name in Kabat numbering, V domains shown)
VH: B2 VH with Y100F, T109V
VL: B2 VL
fold change of affinity: 0.4 fold

B16: dBBDu183H V100cY/dBBDu072L (antibody, name in Kabat numbering, V domains shown)
VH: B2 VH with T109Y
VL: B2 VL
fold change of affinity: 1.3 fold

B18: dBBDu183H Y94H/dBBDu072L (antibody, name in Kabat numbering, V domains shown)
VH: B2 VH with Y100H, T109V
VL: B2 VL
fold change of affinity: 0.5 fold

B19: dBBDu183H Y94E/dBBDu072L (antibody, name in Kabat numbering, V domains shown)
VH: B2 VH with Y100E, T109V
VL: B2 VL
fold change of affinity: 0 fold

B20: dBBDu183H V100cW/dBBDu072L (antibody, name in Kabat numbering, V domains shown)
VH: B2 VH with T109W
VL: B2 VL
fold change of affinity: 1.5 fold

B22: dBBDu183H Y94Q/dBBDu072L (antibody, name in Kabat numbering, V domains shown)
VH: B2 VH with Y100Q, T109V
VL: B2 VL
fold change of affinity: 0.4 fold

B24: dBBDu183H V100iE/dBBDu072L (antibody, name in Kabat numbering, V domains shown)
VH: B2 VH with T109V, V115E
VL: B2 VL
fold change of affinity: 1.4 fold

B27: dBBDu183H V100iG/dBBDu072L (antibody, name in Kabat numbering, V domains shown)
VH: B2 VH with T109V, V115G
VL: B2 VL
fold change of affinity: 1.8 fold

B28: dBBDu183H V100iS/dBBDu072L (antibody, name in Kabat numbering, V domains shown)
VH: B2 VH with T109V, V115S
VL: B2 VL
fold change of affinity: 1.9 fold

B29: dBBDu183H V100iY/dBBDu072L (antibody, name in Kabat numbering, V domains shown)
VH: B2 VH with T109V, V115Y
VL: B2 VL
fold change of affinity: 3 fold

B31: dBBDu183H V100iN/dBBDu072L (antibody, name in Kabat numbering, V domains shown)
VH: B2 VH with T109V, V115N
VL: B2 VL
fold change of affinity: 5 fold

Now from value to binder:

fold change of affinity: 1.2 fold
B1: dBBDu183H V100cK/dBBDu072L (antibody, name in Kabat numbering, V domains shown)
VH: B2 VH with T109K
VL: B2 VL

fold change of affinity: 1.4 fold
B3: dBBDu183H V100cQ/dBBDu072L (antibody, name in Kabat numbering, V domains shown)
VH: B2 VH with T109Q
VL: B2 VL

fold change of affinity: 2.2 fold
B6: dBBDu183H V100iH/dBBDu072L (antibody, name in Kabat numbering, V domains shown)
VH: B2 VH with T109V, V115H
VL: B2 VL

fold change of affinity: 2.4 fold
B10: dBBDu183H V100iK/dBBDu072L (antibody, name in Kabat numbering, V domains shown)
VH: B2 VH with T109V, V115K
VL: B2 VL

fold change of affinity: 1 fold
B12: dBBDu183H V100cN/dBBDu072L (antibody, name in Kabat numbering, V domains shown)
VH: B2 VH with T109N
VL: B2 VL

fold change of affinity: 0 fold
B13: dBBDu183H Y94D/dBBDu072L (antibody, name in Kabat numbering, V domains shown)
VH: B2 VH with Y100D, T109V
VL: B2 VL

fold change of affinity: 1.1 fold
B14: dBBDu183H Y94G/dBBDu072L (antibody, name in Kabat numbering, V domains shown)
VH: B2 VH with Y100G, T109V
VL: B2 VL

fold change of affinity: 3.2 fold
B17: dBBDu183H V100iF/dBBDu072L (antibody, name in Kabat numbering, V domains shown)
VH: B2 VH with T109V, V115F
VL: B2 VL

fold change of affinity: 3.6 fold
B21: dBBDu183H V100iQ/dBBDu072L (antibody, name in Kabat numbering, V domains shown)
VH: B2 VH with T109V, V115Q
VL: B2 VL

fold change of affinity: 0 fold
B23: dBBDu183H Y94S/dBBDu072L (antibody, name in Kabat numbering, V domains shown)
VH: B2 VH with Y100S, T109V
VL: B2 VL

fold change of affinity: 2.4 fold
B25: dBBDu183H V100iD/dBBDu072L (antibody, name in Kabat numbering, V domains shown)
VH: B2 VH with T109V, V115D
VL: B2 VL

fold change of affinity: 0.3 fold
B26: dBBDu183H Y94T/dBBDu072L (antibody, name in Kabat numbering, V domains shown)
VH: B2 VH with Y100T, T109V
VL: B2 VL

fold change of affinity: 1.1 fold
B30: dBBDu183H V100cS/dBBDu072L (antibody, name in Kabat numbering, V domains shown)
VH: B2 VH with T109S
VL: B2 VL

fold change of affinity: 0 fold
B32: dBBDu183H Y94N/dBBDu072L (antibody, name in Kabat numbering, V domains shown)
VH: B2 VH with Y100N, T109V
VL: B2 VL

fold change of affinity: 2.6 fold
B33: dBBDu183H Y94V/dBBDu072L (antibody, name in Kabat numbering, V domains shown)
VH: B2 VH with Y100V, T109V
VL: B2 VL
